Experiments:
[1] = target: T1, PEAR1 ectodomain, monomeric biotinylated bait (human, UniProt Q5VY43 21-755, biotin (on the biotinylatable peptide tag)); experiment: SPR; Biacore T100; PEAR1 immobilised; seven serial dilutions of FcεR1α-Cd4-His6 injected at 100 μl/min; kinetic analysis, 1:1 binding model; conditions: both partners purified
T1 construct: human platelet endothelium aggregation receptor 1 (PEAR1), whole ectodomain; also called PEAR1 bait; immobilized PEAR1; source: HEK293E, transient transfection, purified (Ni2+-NTA via His6)
T1 sequence (looked up): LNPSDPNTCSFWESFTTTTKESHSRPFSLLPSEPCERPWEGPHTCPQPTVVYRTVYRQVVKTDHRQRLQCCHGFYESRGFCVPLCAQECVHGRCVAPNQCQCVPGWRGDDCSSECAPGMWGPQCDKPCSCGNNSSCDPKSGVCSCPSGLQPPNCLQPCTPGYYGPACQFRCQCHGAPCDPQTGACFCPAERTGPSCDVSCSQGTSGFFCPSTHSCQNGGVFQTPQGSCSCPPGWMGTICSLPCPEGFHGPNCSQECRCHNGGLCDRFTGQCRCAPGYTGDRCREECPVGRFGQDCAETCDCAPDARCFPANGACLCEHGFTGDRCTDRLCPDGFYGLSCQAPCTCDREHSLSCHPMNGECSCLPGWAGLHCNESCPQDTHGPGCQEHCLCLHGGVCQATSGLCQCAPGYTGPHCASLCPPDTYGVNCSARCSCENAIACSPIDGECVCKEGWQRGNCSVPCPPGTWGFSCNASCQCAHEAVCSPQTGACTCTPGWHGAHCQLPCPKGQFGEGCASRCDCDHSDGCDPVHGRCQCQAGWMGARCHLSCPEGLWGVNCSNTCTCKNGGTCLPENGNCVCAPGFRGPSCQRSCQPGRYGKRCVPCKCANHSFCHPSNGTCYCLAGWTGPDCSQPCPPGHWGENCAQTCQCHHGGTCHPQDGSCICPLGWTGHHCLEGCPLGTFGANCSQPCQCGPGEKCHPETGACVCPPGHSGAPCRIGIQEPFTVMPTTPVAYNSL

[2] = target: T2, PEAR1 ectodomain, monomeric biotinylated bait (human, UniProt Q5VY43 21-755, biotin (on the biotinylatable peptide tag)); experiment: SPR; kinetic analysis
T2 chain: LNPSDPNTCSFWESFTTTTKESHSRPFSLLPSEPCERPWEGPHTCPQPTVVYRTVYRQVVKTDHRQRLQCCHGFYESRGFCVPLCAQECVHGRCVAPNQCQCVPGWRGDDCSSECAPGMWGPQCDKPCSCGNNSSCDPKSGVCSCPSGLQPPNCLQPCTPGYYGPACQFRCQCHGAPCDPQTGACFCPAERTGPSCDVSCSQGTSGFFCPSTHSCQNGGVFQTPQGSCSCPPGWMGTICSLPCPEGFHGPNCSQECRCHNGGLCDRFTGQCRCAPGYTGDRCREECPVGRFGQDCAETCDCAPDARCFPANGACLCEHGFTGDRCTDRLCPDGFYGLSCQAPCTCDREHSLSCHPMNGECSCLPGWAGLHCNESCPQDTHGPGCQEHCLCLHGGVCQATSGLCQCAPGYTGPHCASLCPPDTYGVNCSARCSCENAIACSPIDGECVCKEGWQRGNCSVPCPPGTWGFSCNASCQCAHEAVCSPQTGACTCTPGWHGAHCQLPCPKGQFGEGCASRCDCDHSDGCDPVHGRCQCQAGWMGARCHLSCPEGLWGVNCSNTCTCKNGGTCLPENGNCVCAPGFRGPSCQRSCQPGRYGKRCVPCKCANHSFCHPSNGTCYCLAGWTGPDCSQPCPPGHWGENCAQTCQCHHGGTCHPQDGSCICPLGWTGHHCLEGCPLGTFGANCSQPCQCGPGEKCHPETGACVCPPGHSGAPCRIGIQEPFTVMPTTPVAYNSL

[3] = target: T1, PEAR1 ectodomain, monomeric …; experiment: SPR; Biacore T100; PEAR1 immobilised; gel-filtered monomeric FcεR1α-Cd4-His6 serially diluted and injected at 10 μl/min until equilibrium; reference-subtracted; equilibrium analysis; conditions: both partners purified

stoichiometry N [1]: 1
koff [2]: 0.0788 s⁻¹
Kd [3]: 27.4 ± 1.3 nM
B1: FcεR1α-Cd4-His6, purified monomeric soluble protein (receptor, human, UniProt P12319 26-205, looked up)
chain: VPQKPKVSLNPPWNRIFKGENVTLTCNGNNFFEVSSTKWFHNGSLSEETNSSLNIVNAKFEDSGEYKCQHQQVNESEPVYLEVFSDWLLLQASAEVVMEGQPLFLRCHGWRNWDVYKVIYYKDGEALKYWYENHNISITNATVEDSGTYYCTGKVWQLDYESEPLNITVIKAPREKYWLQ
notes: also called soluble FcεR1α-Cd4-His6; source: HEK293E, transient transfection, purified (His6), resolved by gel filtration just prior to use

Source: article PMC4424398, “A Human Platelet Receptor Protein Microarray Identifies the High Affinity Immunoglobulin E Receptor Subunit α (FcεR1α) as an Activating Platelet Endothelium Aggregation Receptor 1 (PEAR1) Ligand* ^([image sbox.jpg])” (Molecular & Cellular Proteomics : MCP, 2015)
